Numbering of substitutions follows the chain as printed.
Experiments:
[1] = tested on: T1, PRSRTVGPGSRSASGKSTCLASYCWLFWTGIA
T1 sequence: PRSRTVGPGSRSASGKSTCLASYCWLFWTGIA

KLTCLASYCWL-MePhe = tested on: T2, KLTCLASYCWL-MePhe
T2 sequence: KLTCLASYCWLF

[2] = tested on: T3, C(N-PEG5kmaleimide)-PEG4-LVPR-PEG4-rRAPGKLTCLASYCWLFWTGIA
T3 sequence: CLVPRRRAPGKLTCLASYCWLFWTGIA

RGRSAKLTCLASYCWLFFGVIL = tested on: T4, RGRSAKLTCLASYCWLFFGVIL
T4 sequence: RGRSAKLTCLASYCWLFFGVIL

[3] = tested on: T5, CGGSGGRRAPGKLQCLASYCWLFWTGIAGGSGGC
T5 sequence: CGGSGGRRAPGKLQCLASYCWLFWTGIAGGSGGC

KLTCLAsYCWLF = tested on: T6, KLTCLAsYCWLF
T6 sequence: KLTCLASYCWLF

[4] = tested on: T7, RRAPGKLT-Asp-LASY-Dap-WLFWTGIA-COOH
T7 sequence: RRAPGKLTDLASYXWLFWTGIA

KLTCLASYC = tested on: T8, KLTCLASYC
T8 sequence: KLTCLASYC

RAPGKLQCLASYCWLFWTGIA = tested on: T9, RAPGKLQCLASYCWLFWTGIA
T9 sequence: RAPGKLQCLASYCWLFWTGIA

RRAKGKLQCLASYCWLFWTGIA = tested on: T10, RRAKGKLQCLASYCWLFWTGIA
T10 sequence: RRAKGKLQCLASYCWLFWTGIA

[5] = tested on: T11, PRIRTVGPGSRSASGKLTCFASYCWLFWTGIA
T11 sequence: T1 sequence with S3I, S17L, L20F

RRaPGKLTCLASYCWLFWTGIA = tested on: T12, RRaPGKLTCLASYCWLFWTGIA
T12 sequence: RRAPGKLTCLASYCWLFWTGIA

[6] = tested on: T13, PSIRTVGPGSRSASGKLTCLASYCWLFWTGIA
T13 sequence: T1 sequence with R2S, S3I, S17L

[7] = tested on: T14, RPRSSAHDRP RRAAG KLTCLASYCWLFWTGIA
T14 sequence: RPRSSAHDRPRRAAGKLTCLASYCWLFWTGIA

KLTCLA-HSe-YCWLF = tested on: T15, KLTCLA-HSe-YCWLF
T15 sequence: KLTCLAXYCWLF

[8] = tested on: T16, PRIRTVGSGSRSASGKLTCLASYCWLFWTGIA
T16 sequence: T1 sequence with S3I, P8S, S17L

[9] = tested on: T17, PRIRTVGPGSRSASGKLTCSASYCWLFWTGIA
T17 sequence: T1 sequence with S3I, S17L, L20S

KLTCLASYAWLF = tested on: T18, KLTCLASYAWLF
T18 sequence: KLTCLASYAWLF

FGQPSRLTCLASYCWLFGNLVT = tested on: T19, FGQPSRLTCLASYCWLFGNLVT
T19 sequence: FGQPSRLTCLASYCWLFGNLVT

[10] = tested on: T20, rRAPGKLTCLASYCWLFWTGIA-PEG4-C(N-PEG5k maleimide)
T20 sequence: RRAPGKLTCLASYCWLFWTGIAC

[11] = tested on: T21, Pra-PEG4-PRIrTVGPGSrSASGKSTCLASYCWLFWTGIA
T21 sequence: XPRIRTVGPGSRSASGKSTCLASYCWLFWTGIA

[12] = tested on: T22, RRAK(PEG2-Biotin)GKLTCLASYCWLFWTGIA
T22 sequence: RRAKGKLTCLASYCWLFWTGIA

[13] = tested on: T23, RRAPGKLTCLASYCWLFWTGK(PEG2-Biotin)A
T23 sequence: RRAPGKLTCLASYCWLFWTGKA

[14] = tested on: T24, RRAPGKLCALASYCWLFWTGIA-COOH
T24 sequence: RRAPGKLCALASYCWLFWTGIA

[15] = tested on: T25, RRAPGKLT-Asp-LASY-Orn-WLFWTGIA-CONH2
T25 sequence: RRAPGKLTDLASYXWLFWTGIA

[16] = tested on: T26, (KLTCLASYCWLFG)2═N-O-(CH2)3-O-N═
T26 sequence: KLTCLASYCWLFG

[17] = tested on: T27, RRAPGKLTCLASYCWLF WTTWT TAPTTPPLTT
T27 sequence: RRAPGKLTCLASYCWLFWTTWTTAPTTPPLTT

compound 18 = tested on: T28, compound 18
T28 sequence: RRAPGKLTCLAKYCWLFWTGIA

[18] = tested on: T29, RRAPGKLTCLAS-MeTyr-CWLFWTGIA
T29 sequence: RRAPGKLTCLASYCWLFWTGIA

[19] = tested on: T30, AKQGRPISPDrRAAGKLTCLASYCWLFWTGIA
T30 sequence: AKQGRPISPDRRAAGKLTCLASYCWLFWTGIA

Ac-K-k-MeLeu-TCLASYCWLF = tested on: T31, Ac-K-k-MeLeu-TCLASYCWLF
T31 sequence: KKLTCLASYCWLF

NGGMQKPACLASQCWLFANPLP = tested on: T32, NGGMQKPACLASQCWLFANPLP
T32 sequence: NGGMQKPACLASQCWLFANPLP

[20] = tested on: T33, RRAPG-MeLys-LTCLASYCWLFWTGIA
T33 sequence: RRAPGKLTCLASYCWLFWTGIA

rRAPGKSTCLASYCWLFWTGIA = tested on: T34, rRAPGKSTCLASYCWLFWTGIA
T34 sequence: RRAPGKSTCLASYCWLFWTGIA

GASGRRRTCVASYCLLFQSGLP = tested on: T35, GASGRRRTCVASYCLLFQSGLP
T35 sequence: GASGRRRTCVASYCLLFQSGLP

RRKPGKLQCLASYCWLFWTGIA = tested on: T36, RRKPGKLQCLASYCWLFWTGIA
T36 sequence: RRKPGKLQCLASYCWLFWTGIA

[21] = tested on: T37, RRAPGKLTCLASYCWLF WTGLS RYQWQAQEDV
T37 sequence: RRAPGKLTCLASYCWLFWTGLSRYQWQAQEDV

[22] = tested on: T38, RRAPGKLTCLASYCWLFWTK(PEG2-Biotin)IA
T38 sequence: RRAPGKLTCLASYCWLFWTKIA

[23] = tested on: T39, PRIRTVGPGSRSASGKLTCLASYCWLFWTGI
T39 sequence: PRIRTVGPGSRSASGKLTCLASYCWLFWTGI

MAGMLKLTCFASYCGLFPLVSS = tested on: T40, MAGMLKLTCFASYCGLFPLVSS
T40 sequence: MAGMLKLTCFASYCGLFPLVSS

[24] = tested on: T41, RRAPGK(PEG2-Biotin)LTCLASYCWLFWTGIA
T41 sequence: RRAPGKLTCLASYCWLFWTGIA

[25] = tested on: T42, SKQARPISPDrRAAGKLTCLASYCWLFWTGIA
T42 sequence: T30 sequence with A1S, G4A

[26] = tested on: T43, PRIRTVGPSSRSASGKLTCLASYCWLFWTGIA
T43 sequence: T1 sequence with S3I, G9S, S17L

[27] = tested on: T44, SRIRTVSPGSRSASGKSTCLASYCWLFWTGIA
T44 sequence: T1 sequence with P1S, S3I, G7S

KLTCLASYCWIF = tested on: T45, KLTCLASYCWIF
T45 sequence: KLTCLASYCWIF

RRAPGKLQCLASYCWLFWTGFA = tested on: T46, RRAPGKLQCLASYCWLFWTGFA
T46 sequence: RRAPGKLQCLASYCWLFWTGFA

compound 23 = tested on: T47, compound 23
T47 sequence: T1 sequence with S3I, S17L

KLTCLASYCWL = tested on: T48, KLTCLASYCWL
T48 sequence: KLTCLASYCWL

human Factor IXa was tested, and the Vmax, FXa generation assay [1] was > 3, the “Vmax, FXa generation assay; (++) means 1-2” value (“Vmax … (++) means 1-2” for short) (KLTCLASYCWL-MePhe) was “(++)” and the “Vmax … (++) means 1-2” value [2] was “(++)”. The Vmax, FXa generation assay (RGRSAKLTCLASYCWLFFGVIL) was > 2, the “Vmax … (++) means 1-2” value [3] was “(++)” and the Vmax, FXa generation assay (KLTCLAsYCWLF) was > 2. The “Vmax … (++) means 1-2” value [4] was “(++)”, the Vmax, FXa generation assay (KLTCLASYC) was > 3 and the “Vmax … (++) means 1-2” value (RAPGKLQCLASYCWLFWTGIA) was “(++)”. The “Vmax … (++) means 1-2” value (RRAKGKLQCLASYCWLFWTGIA) was “(++)”, the Vmax, FXa generation assay [5] was > 2 and the “Vmax … (++) means 1-2” value (RRaPGKLTCLASYCWLFWTGIA) was “(++)”. The Vmax, FXa generation assay [6] was > 3, the Vmax, FXa generation assay [7] was > 3 and the “Vmax … (++) means 1-2” value (KLTCLA-HSe-YCWLF) was “(++)”. For the same substance, the Vmax, FXa generation assay [8] was > 3, the “Vmax … (++) means 1-2” value [9] was “(++)” and the “Vmax … (++) means 1-2” value (KLTCLASYAWLF) was “(++)”. For the same substance, the “Vmax … (++) means 1-2” value (FGQPSRLTCLASYCWLFGNLVT) was “(++)”, the Vmax, FXa generation assay [10] was > 2 and the “Vmax … (++) means 1-2” value [11] was “(++)”. For the same substance, the “Vmax … (++) means 1-2” value [12] was “(++)”, the “Vmax … (++) means 1-2” value [13] was “(++)” and the Vmax, FXa generation assay [14] was > 2. The Vmax, FXa generation assay [15] was > 2, the Vmax, FXa generation assay [16] was > 3 and the Vmax, FXa generation assay [17] was > 2. For the same substance, the Vmax, FXa generation assay with hFIXa (compound 18) was > 2, the “Vmax … (++) means 1-2” value [18] was “(++)” and the Vmax, FXa generation assay [19] was > 3. The Vmax, FXa generation assay (Ac-K-k-MeLeu-TCLASYCWLF) was > 2, the “Vmax … (++) means 1-2” value (NGGMQKPACLASQCWLFANPLP) was “(++)” and the “Vmax … (++) means 1-2” value [20] was “(++)”. The “Vmax … (++) means 1-2” value (rRAPGKSTCLASYCWLFWTGIA) was “(++)”, the Vmax, FXa generation assay (GASGRRRTCVASYCLLFQSGLP) was > 0.1 and the Vmax, FXa generation assay (RRKPGKLQCLASYCWLFWTGIA) was > 2. The Vmax, FXa generation assay [21] was > 2, the Vmax, FXa generation assay [22] was > 2 and the Vmax, FXa generation assay [23] was > 3. The “Vmax … (++) means 1-2” value (MAGMLKLTCFASYCGLFPLVSS) was “(++)”, the “Vmax … (++) means 1-2” value [24] was “(++)” and the Vmax, FXa generation assay [25] was > 3. The Vmax, FXa generation assay [26] was > 3, the Vmax, FXa generation assay [27] was > 3 and the Vmax, FXa generation assay (KLTCLASYCWIF) was > 2. For the same substance, the Vmax, FXa generation assay (RRAPGKLQCLASYCWLFWTGFA) was > 2, the Vmax, FXa generation assay with hFIXa (compound 23) was > 3 and the Vmax, FXa generation assay (KLTCLASYCWL) was > 3.

— patent US20140303084
